According to patent US20130034493A1 (RESEARCH DEVELOPMENT FOUNDATION, published 2013):

Target: T1, recombinant BMP4 (rBMP4) (mouse, UniProt P21275 293-408, limits assumed)
T1 sequence (looked up): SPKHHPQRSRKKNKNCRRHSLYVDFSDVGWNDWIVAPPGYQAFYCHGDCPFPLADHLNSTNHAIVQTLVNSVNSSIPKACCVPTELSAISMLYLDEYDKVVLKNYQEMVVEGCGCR
Assay: cell-based or functional assay

ERK1/2 phosphorylation in HUVECs: 5 fold
B1: mouse recombinant Olfml3-FLAG tagged protein (rOlfml3-FLAG) (other, not shown: small tags and cut ends)
chain: QQHHLVEYMERRLAALEERLAQCQDQSSRHAAELRDFKNKMLPLLEVAEKERETLRTEADSISGRVDRLEREVDYLETQNPALPCVELDEKVTGGPGAKGKGRRNEKYDMVTDCSYTVAQVRSMKILKRFGGSVGLWTKDPLGPAEKIYVLDGTQNDTAFVFPRLRDFTLAMAARKASRIRVPFPWVGTGQLVYGGFLYYARRPPGGPGGGGELENTLQLIKFHLANRTVVDSSVFPAESLIPPYGLTADTYIDLAADEEGLWAVYATRDDDRHLCLAKLDPQTLDTEQQWDTPCPRENAEAAFVICGTLYVVYNTRPASRARIQCSFDASGTLAPERAALSYFPRRYGAHASLRYNPRERQLYAWDDGYQIVYKLEMKKKEEEV
